This note sets out measurements from patent US20180084767.

What all share (test): cell_activity
The subject of data set [1] is ssTTN 5.1 L TALEN (Xanthomonas (engineered)?). The note with it: as pair with 5.1 R; TALEN mRNA transfected.
The test system of data set [2] is ssBAG3 4.1 R TALEN (Xanthomonas (engineered)?). As to conditions: as pair with 4.1 L; transfected cells.
Data set [3] concerns ssBAG3 4.1 L TALEN (Xanthomonas (engineered)?). The note with it: as pair with 4.1 R; transfected cells.
Data set [4] deals with ssTTN 3.1 R TALEN (Xanthomonas (engineered)?). As to conditions: as pair with 3.1 L; TALEN mRNA transfected.
The subject of data set [5] is ssTTN 3.1 L TALEN (Xanthomonas (engineered)?). As to conditions: as pair with 3.1 R; TALEN mRNA transfected.
Data set [6] concerns ssTTN 5.1 R TALEN (Xanthomonas (engineered)?). As to conditions: as pair with 5.1 L; TALEN mRNA transfected.

“CAGTCATGCAATTTT (double strand) [ssTTN 5.1 L site]”: the activity in data set [1] was found to be 44.9 % editing. Turning to “TGGTCAAATACTCTTCTAT (double strand) [ssBAG3 4.1 R site]”, in data set [2], the activity turned out to be 21.3 % editing. In the case of “TGAAGGCAAGAAGACAGAC (double strand) [ssBAG3 4.1 L site]”, the activity in data set [3] was determined as 21.3 % editing. Sequence “GTCCTAACATTTTATAT (double strand) [ssTTN 3.1 R site]” gave an activity in data set [4] of 60 % editing. For the sequence “GTCATATCCATAAAAAAC (double strand) [ssTTN 3.1 L site]”, the activity in data set [5] turned out to be 60 % editing. In turn, “CCAATTCCCAAGTAAT (double strand) [ssTTN 5.1 R site]” showed an activity in data set [6] of 44.9 % editing.
